In the Immune Epitope Database (IEDB) one finds Kd and IC50 data, which are given here for 33 sequences.

Broadly, the Kd is a measure of binding affinity in units of concentration. A word on the IC50: it is the point on the concentration scale where inhibition reaches its midpoint. Read a low IC50 as greater potency in that assay.

One experiment deals with HLA-A*02:03. Put plainly: IEDB peptide-MHC binding, purified MHC/competitive/radioactivity; filed as Kd, often an IC50 or EC50 that approximates it; ≥ and ≤ were set here for values at or beyond the usual limits of such assays.
The next experiment has as its target HLA-A*02:06. The experiment is described as above.
A further experiment has as its target HLA-A*68:02. Described as above.
The next experiment addresses HLA-A*02:02. Described as above.
Another experiment deals with HLA-B*15:01. Put plainly: IEDB peptide-MHC binding, purified MHC/direct/fluorescence; filed as Kd, often an IC50 or EC50 that approximates it; ≥ and ≤ were set here for values at or beyond the usual limits of such assays. The conditions noted are these: source organism: Homo sapiens.
A further experiment has as its target HLA-B*07:02. The description is as above. The conditions noted are these: source organism: Homo sapiens.
For the next experiment, the target named is HLA-B*53:01. Put plainly: IEDB peptide-MHC binding, purified MHC/competitive/radioactivity; filed as Kd, often an IC50 or EC50 that approximates it; ≥ and ≤ were set here for values at or beyond the usual limits of such assays. The conditions noted are these: source organism: Dengue virus 2 Peru/IQT2913/1996.
For another experiment, the target named is HLA-B*51:01. Described as above. The conditions noted are these: source organism: Dengue virus 2 Peru/IQT2913/1996.
Another experiment has as its target HLA-A*32:01. Described as above. The conditions noted are these: source organism: Dengue virus 1 Brazil/97-11/1997.
The target of another experiment is HLA-B*44:02. Described as above. The conditions noted are these: source organism: Dengue virus 1 Brazil/97-11/1997.
The target of a further experiment is HLA-B*44:03. Described as above. The conditions noted are these: source organism: Dengue virus 1 Brazil/97-11/1997.
For the next experiment, the target named is HLA-A*26:01. The description is as above. The conditions noted are these: source organism: Dengue virus 4 Philippines/H241/1956.
In the next experiment the target is HLA-A*30:01. The description is as above.
The next experiment deals with HLA-A*24:02. Description: IEDB peptide-MHC binding, purified MHC/competitive/fluorescence; ≥ and ≤ were set here for values at or beyond the usual limits of such assays. The conditions noted are these: source organism: Zaire ebolavirus.
The next experiment concerns the target HLA-B*57:01. Put plainly: IEDB peptide-MHC binding, purified MHC/direct/fluorescence; filed as Kd, often an IC50 or EC50 that approximates it; ≥ and ≤ were set here for values at or beyond the usual limits of such assays.
The target in another experiment is HLA-A*02:01. Put plainly: IEDB peptide-MHC binding, purified MHC/competitive/fluorescence; ≥ and ≤ were set here for values at or beyond the usual limits of such assays. The conditions noted are these: source organism: Zaire ebolavirus.
In a further experiment the target is HLA-A*03:01. Description: IEDB peptide-MHC binding, purified MHC/competitive/radioactivity; filed as Kd, often an IC50 or EC50 that approximates it; ≥ and ≤ were set here for values at or beyond the usual limits of such assays. The conditions noted are these: source organism: Vaccinia virus WR.
The next experiment has as its target HLA-A*31:01. The description is as above. The conditions noted are these: source organism: Vaccinia virus WR.
In another experiment the target is HLA-A*33:01. The description is as above. The conditions noted are these: source organism: Vaccinia virus WR.
A further experiment addresses HLA-A*68:01. The description is as above. The conditions noted are these: source organism: Vaccinia virus WR.
Another experiment addresses HLA-A*11:01. Described as above. The conditions noted are these: source organism: Vaccinia virus WR.
For the next experiment, the target named is HLA-B*58:01. Put plainly: IEDB peptide-MHC binding, purified MHC/direct/fluorescence; filed as Kd, often an IC50 or EC50 that approximates it; ≥ and ≤ were set here for values at or beyond the usual limits of such assays. The conditions noted are these: source organism: Brucella abortus 2308.
Setting [1] is: source organism: Lassa virus Josiah.
Where [2] appears, read: source organism: Trypanosoma cruzi.
The mark [3] stands for this setting: source organism: Dengue virus 4 Philippines/H241/1956.
The mark [4] stands for this setting: source organism: Vaccinia virus WR.
Where [5] appears, read: source organism: Lymphocytic choriomeningitis virus (strain Armstrong) (clone 53b).
Where [6] appears, read: source organism: Dengue virus 2 Jamaica/1409/1983.

Turning to LIALSVLAV, the dissociation constant (Kd) in the experiment with HLA-A*02:03 (setting [1]) turned out to be 2.63 nM; in the experiment with HLA-A*02:06 (setting [1]) it was 336 nM; with HLA-A*68:02 (setting [1]) it was 323 nM; in the experiment with HLA-A*02:02 (setting [1]), 117 nM. Turning to LLEGEEERL, the Kd was no less than 20500 nM with HLA-A*02:06 (source organism: Homo sapiens) and no less than 136000 nM with HLA-A*68:02 (source organism: Homo sapiens). As to LLGLWGLATA, the Kd with HLA-A*02:03 (setting [2]) was 1.39 nM; with HLA-A*02:06 (setting [2]) it was 57.9 nM; with HLA-A*68:02 (setting [2]), 407 nM; with HLA-A*02:02 (setting [2]), 1.69 nM. Turning to LPHQPLATY, the Kd in the experiment with HLA-B*15:01 was 2350 nM; with HLA-B*07:02 it was 5980 nM. For the sequence LPVWLAYKV, the equilibrium dissociation constant (Kd) was 157 nM with HLA-B*53:01 and 515 nM with HLA-B*51:01.

As to MEHKYSWKSW, the results for the Kd in the experiment with HLA-A*32:01, with HLA-B*44:02 and with HLA-B*44:03 were 2040 nM, 11.2 nM and 137 nM, respectively. Consider MSPGYVLGV, for which, in the experiment with HLA-A*68:02 (source organism: Dengue virus 4 Dominica/814669/1981), the Kd amounted to 99.6 nM.

MTAGIFLFFM: the Kd with HLA-A*26:01 turned out to be 15.9 nM; in the experiment with HLA-A*68:02 (setting [3]) it was 10.4 nM. Consider NARLMRALK, for which the Kd with HLA-A*30:01 (setting [4]) worked out at 2.22 nM. Consider NLQKESRACL, for which, in the experiment with HLA-A*68:02 (source organism: Homo sapiens), the Kd worked out at 19700 nM.

PFDAVLYYH showed an IC50 in the experiment with HLA-A*24:02 of 4690 nM.

Turning to PLNDNIATLL, the equilibrium dissociation constant (Kd) in the experiment with HLA-A*68:02 (source organism: Homo sapiens) worked out at 7440 nM. Turning to QRWGGTCHI, in the experiment with HLA-A*24:02, the IC50 was 43300 nM. Regarding QTQSRPIQN, in the experiment with HLA-A*24:02, the IC50 is no less than 128000 nM.

On to RAILGCAQA, for which the Kd with HLA-A*30:01 (setting [4]) came to 2370 nM. With RFRTVLISK, the Kd with HLA-A*30:01 (source organism: Vaccinia virus Copenhagen) worked out at 4.59 nM. Regarding RQLQKIERW, the Kd with HLA-B*57:01 (source organism: Yellow fever virus) was found to be 405 nM. Consider RTKPASAPI, for which the Kd with HLA-A*30:01 (setting [4]) came out at 0.114 nM. With RTLAAMPEE, the IC50 is no less than 351000 nM with HLA-A*02:01 and 6750 nM with HLA-A*24:02. For the sequence RTRYDTFKV, the Kd with HLA-A*30:01 (setting [4]) is 0.197 nM. Turning to SHLTTLATI, the IC50 is 13200 nM with HLA-A*02:01 and 402 nM in the experiment with HLA-A*24:02. For SLNQTVHSL, the Kd was 2.4 nM in the experiment with HLA-A*02:03 (setting [5]), no less than 28100 nM in the experiment with HLA-A*02:06 (setting [5]), 16100 nM in the experiment with HLA-A*68:02 (setting [5]) and 1.9 nM with HLA-A*02:02 (setting [5]). SSVNVSLTAI: the dissociation constant (Kd) with HLA-A*68:02 (setting [6]) was 184 nM.

As for TTELRTFSI, the IC50 with HLA-A*02:01 worked out at 68300 nM; with HLA-A*24:02, 12200 nM. For the sequence TTKDYFSFK, the Kd amounted to 18.1 nM in the experiment with HLA-A*03:01; 1.33 nM in the experiment with HLA-A*31:01; 1.23 nM with HLA-A*30:01 (setting [4]); 17.6 nM with HLA-A*33:01; 1.07 nM with HLA-A*68:01; 0.861 nM in the experiment with HLA-A*11:01. Take TTTESRCPTQ: the Kd with HLA-A*30:01 (setting [6]) is no less than 28700 nM. As to TVFFVLMML, in the experiment with HLA-A*68:02 (setting [3]), the Kd amounted to 36 nM. On to VARGARFFL, for which the Kd with HLA-B*57:01 (source organism: Brucella abortus 2308) is 509 nM; with HLA-B*58:01, no less than 20000 nM.

Take VNNLEHGLF: in the experiment with HLA-A*24:02, the IC50 was 25400 nM. As to VSRLEHQMW, the Kd with HLA-B*57:01 (source organism: West Nile virus) came to 90.5 nM. Regarding VTPSMTMRCV, the Kd in the experiment with HLA-A*68:02 (source organism: Dengue virus 3 Martinique/1243/1999) amounted to 193 nM. For the sequence WPLSKMDIGV, in the experiment with HLA-B*51:01, the Kd is 2670 nM. On to YAPFARLLN, for which the IC50 was no less than 87800 nM with HLA-A*02:01 and 19300 nM with HLA-A*24:02.
